Data published in article PMC10967027.
Values joined by “and” are separate entries in the source; they are usually repeats but may differ in a detail not shown here. Equal values may be shown once.

How the values were obtained:
[1] = biological target: 868-Z11 G104βP/T96βK single chain TCR, soluble recombinant
[2] = biological target: 868-Z11 G104βP/T96βK single chain TCR, soluble recombinant; assay: SPR; steady state; scTCR immobilised on CM5 chip by amine coupling (about 2000 RU); peptide/MHC injected at 50 µM to 2 nM, 5 μL/min; 25°C; HBS-EP pH 7.4; 1:1 model
[3] = biological target: 868-Z11 A94αH/T96βK single chain TCR, soluble recombinant; assay: as above
[4] = biological target: 868-Z11 T96βK single chain TCR, soluble recombinant; assay: as above
[5] = biological target: 868-Z11 G104βP single chain TCR, soluble recombinant; assay: SPR; single cycle kinetics; scTCR immobilised on CM5 chip by amine coupling (100-300 RU); peptide/MHC injected at 0.6-48 nM, 100 μL/min; 25°C; HBS-EP pH 7.4; 1:1 model
[6] = biological target: 868-Z11 A94αH single chain TCR, soluble recombinant; assay: as above
[7] = biological target: 868-Z11 A94αH/T96βK single chain TCR; assay: SPR; steady state; scTCR immobilised on a CM5 Series S chip by amine coupling (about 2000 RU); peptide/MHC injected at 5 μL/min at concentrations between 50 µM and 2 nM; 25 °C; HBS-EP (10 mM HEPES, 150 mM NaCl, 3 mM EDTA, 0.005% surfactant P-20, pH 7.4); 1:1 binding model; each cell one of three titrations of its group
[8] = biological target: 868-Z11 T96βK single chain TCR; assay: as above
[9] = biological target: 868-Z11 G104βP/T96βK single chain TCR; assay: as above
[10] = biological target: 868-Z11 single chain TCR (WT), displayed on yeast; assay: flow cytometry on cells; yeast displaying the 868-Z11 scTCR stained with PE-conjugated SL9/HLA-A2 tetramer, 256 pM to 32.8 nM, 30 min at 4°C, PBS-BSA; MFI fit to a 1:1 binding isotherm; apparent KD; in duplicate

SL9/HLA-A2 (HIV SL9 epitope presented by HLA-A*02:01), soluble (from UniProt P61769 21-119) (peptide-MHC)
peptide EC50 of IL-2 release (ELISA): CD8+ Jurkat 76 cells with the full length 868-Z11 G104βP/T96βK TCR co-cultured with T2 cells pulsed with WT SL9 peptide, 0.1 nM-100 µM [1]: 0.01 µM | Kd [2]: 2.2 µM | Kd [3]: 33 µM | Kd [4]: 2.5 µM | Kd [5]: 0.0003 µM | Kd [6]: 0.0052 µM

SL9 V6I escape variant presented by HLA-A*02:01 (from UniProt P61769 21-119) (peptide-MHC)
Kd [7]: 9.5 µM and 12.4 µM and 17.9 µM | Kd [8]: 0.8 µM and 1.1 µM and 1.2 µM | Kd [9]: 0.7 µM and 1.5 µM and 1.6 µM

SL9 Y3F/V6I escape variant presented by HLA-A*02:01 (from UniProt P61769 21-119) (peptide-MHC)
Kd [7]: 102 µM and 105 µM and 167 µM | Kd [8]: 9.6 µM and 10.2 µM and 15.7 µM | Kd [9]: 12.5 µM and 18.5 µM and 22.5 µM

SL9 Y3F escape variant presented by HLA-A*02:01 (from UniProt P61769 21-119) (peptide-MHC)
Kd [7]: 264 µM and 274 µM and 403 µM | Kd [8]: 38.6 µM and 39.3 µM and 58.2 µM | Kd [9]: 34 µM and 39.8 µM and 52.3 µM

SL9 T8V escape variant presented by HLA-A*02:01 (from UniProt P61769 21-119) (peptide-MHC)
Kd [7]: 22.2 µM and 24.3 µM and 40.7 µM | Kd [8]: 1.6 µM and 1.9 µM and 2.7 µM | Kd [9]: 1.4 µM and 3.5 µM and 3.2 µM

PE-conjugated SL9/HLA-A2 tetramer (from UniProt P61769 21-119) (peptide-MHC)
Kd [10]: 0.0017 µM

SL9 Y3F/V6I/T8V escape variant presented by HLA-A*02:01 (from UniProt P61769 21-119) (peptide-MHC)
Kd [7]: 154 µM and 177 µM and 203 µM | Kd [8]: 17.3 µM and 23.8 µM and 20.2 µM | Kd [9]: 20.4 µM and 28.1 µM and 26.3 µM

SL9 Y3F/T8V escape variant presented by HLA-A*02:01 (from UniProt P61769 21-119) (peptide-MHC)
Kd [7]: 324 µM and 314 µM and 475 µM | Kd [8]: 46 µM and 44.6 µM and 59 µM | Kd [9]: 49.1 µM and 62.5 µM

SL9 V6I/T8V escape variant presented by HLA-A*02:01 (from UniProt P61769 21-119) (peptide-MHC)
Kd [7]: 9.9 µM and 13.7 µM and 17.9 µM | Kd [8]: 0.8 µM and 1.1 µM and 1 µM | Kd [9]: 0.8 µM and 1.8 µM and 1.5 µM
